Data taken from a protein production outcome set (Wang et al. 2014).

Experiment: label from the status in PepcDB records

| Sequence | protein production |
| --- | --- |
| MNQAAQQSAPSRLRDRTLAAFTLMVSQPALAAIAALAALYALLAVVGGILTFSPVPFWDMWDGGLGFYVRQMTDVSQWWAQHNEHRIVLSRILFFLDYRYFDSNGAVLVVINYLLACSTFGLLAWCALQRDASRRRDGRMIAAFILCCALLWTQSNNLTWAFQSQFFLANLLPLLALVLLHASCRTRIRGNAIVFLAALTVAAMAAVSMANGVLAGGVVAAACLLGRQSWRRNLLAWAVAIAVPALYFHHYTAPAGHGSILASLRTEPLEVIKFFFAYIGSPFAHLDASGPLHLGWAILAGVVLLTAGAILAWRTIFKRHDTVDVDLVVTLFLGYLVASAFATAGSRALFGLDAAVASRYTTPGLLVLGCVLILASRNFFRDRALTMPYQIGLALMALAFLPSQLTATRPQPYLDFEWRFAALALELGVKDDKQIGWIFPDAAWAQKIAEPAANMGLGIFAKPGIYDAKLTLGGSYPTSSLQTCSLAGLENEAVDASTNDWIRLKGGLMNSILPRKISTVLLVDANNTIVGRGLLAEPKQDSPGAPFGAPFKAYLMGRAQPAVYKIVIPGFCTTTVAPKSQ | failed |
| MADNYVIWFENLRMTDVERVGGKNASLGEMISQLTEKGVRVPGGFATTAEAYRAFLAHNGLSERISAALAKLDVEDVAELARVGKEIRQWILDTPFPEQLDAEIEAAWNKMVADAGGADISVAVRSSATAEDLPDASFAGQQETFLNINGLDNVKEAMHHVFASLYNDRAISYRVHKGFEHDIVALSAGVQRMVRSDSGASGVMFTLDTESGYDQVVFVTSSYGLGENVVQGAVNPDEFYVFKPTLKAGKPAILRKTMGSKHIKMIFTDKAEAGKSVTNVDVPEEDRNRFSITDEEITELAHYALTIEKHYGRPMDIEWGRDGLDGKLYILQARPETVKSQEEGNRNLRRFAINGDKTVLCEGRAIGQKVGQGKVRLIKDASEMDSVEAGDVLVTDMTDPDWEPV | not failed |
| MSLNGKTMFISGASRGIGLAIAKRAAQDGANIALIAKTAEPHPKLPGTVYTAAKELEEAGGQALPIVGDVRDPESVEAAVAKTVEQFGGIDICVNNASAINLGPITEVPMKRFDLMNGIQVRGTYAVSQACIPHLKGRENPHILTLSPPVLLGKEWLKPTAYMMAKFGMTLCALGIAEEMREAGIASNTLWPRTLVATAAVQNLLGGDEAMGRARKPEVYSDAAYVILNKPAREFTGNMLLCEDVLVESGVTDLSVYNCVPGSQLGVDFWVDGVNPPGYTGP | failed |
| MGLSAVAVFAISGALDAARQKMDILGFMLIGTATGLGGGTLRDLLLGNVPVFWIREPIWIIVCLVSTAITYFIAPKLASITRALIWMDAVGIALFAVVGTEIALEFGTSPLIAICMGVMTASFGGIARDVLSGSNLTLMNEELYITTTVAGSVMYLWLNTLSLPANYDLIGGFFIAFILRALAIRFHIKLPNHYRKD | failed |
| MYEGEIAIGPVHSTMLEPHRLRLFIEDEIVKDAELTIGVNHRGVERLMEGLPVEKACILCEKICGICSHIHLWSAARVAEIGCNIEVPERANHIRIIVEELERLHSHTLLFGHAFEILGHETMSMRCFMLREPIMQVFFEISGSRVHYSCPIIGGIRPRCNISETQISHIHDKISQYEEGLTKFIERMLNDPMIISRVKDVGVMDRKTAAKFHAVGPTARGSNVKSDMRKWGWVPEYDPYDFDEILFDSGDVFARLAVRFYECLESVKIIRQALDALKDTSDKRIYNPNYELNEFKPINCYTEAQRGEQYYSYGLDDEGLVRQAKIRTPTATNLGAMEDIVKGYHVSDAELIIASCDPCFTCTDRLMVLKEPFKK | failed |
| MKFYIIRHAKVNMRWPKKCTSDEFNQACKKYDGADIVAFQGSLELPVSNIYTSELIRTKQTAQQLFPLQSYQIDKRLNEVPLKAAFSSKIKLPLIFWNILGRLQWLFNSSKQEGIKASKERAEKFCDDLIYKGEDAILITHGFFMITLLKELKKRGFIEKDNGFNFDNLQVIEVKKRLLVY | failed |
| MQIGKVTGSLWATRKDEKLNGLKLLLVEITDEVEDKRHSIVAADNAGAGNGDLVLVTTGSAARASTGDNTIPVDACIVGIIDSVERYGLEHHHHHH | failed |
| MPDPRGGAQGGGVSGQEGPTLISSVQRAFRLMEAVGAHESGVPAKQLARETGLALGTTYHLLRTMVHDGYVRKLEDGTFVLGERLGALHAGSRDQTALSRVRPTLTELRDDLSAAAYLTLYEEGEIRVAEIVDGPKAPRVDLWVGFEDAGHATALGKSVLRELDAEARADYLSRHALNDLTPRTITYRAQLLRSLDAAPRGPAVTDLEEYRLGTACVAVPVRRGDTIGSLGISVDINRTACLDDAVTTLLATAERVSRGLSLTI | failed |
| MGLALCGAAAQAQEKPNFLIIQCDHLTQRVVGAYGQTQGCTLPIDEVASRGVIFSNAYVGCPLSQPSRAALWSGMMPHQTNVRSNSSEPVNTRLPENVPTLGSLFSESGYEAVHFGKTHDMGSLRGFKHKEPVAKPFTDPEFPVNNDSFLDVGTCEDAVAYLSNPPKEPFICIADFQNPHNICGFIGENAGVHTDRPISGPLPELPDNFDVEDWSNIPTPVQYICCSHRRMTQAAHWNEENYRHYIAAFQHYTKMVSKQVDSVLKALYSTPAGRNTIVVIMADHGDGMASHRMVTKHISFYDEMTNVPFIFAGPGIKQQKKPVDHLLTQPTLDLLPTLCDLAGIAVPAEKAGISLAPTLRGEKQKKSHPYVVSEWHSEYEYVTTPGRMVRGPRYKYTHYLEGNGEELYDMKKDPGERKNLAKDPKYSKILAEHRALLDDYITRSKDDYRSLKVDADPRCRNHTPGYPSHEGPGAREILKRK | not failed |
| MQDFKKLPTVLTAEELIDKIFRRAARVEGRNPKEKALNKLATISNVSRDYFGKIIGAHPSYENLPDFYREMVDVVVGIRQLKKSLVALKWADGMIQKVVSRAVREVKGGKNPSAVVKSAYGRVASIIEQIDDELRFLNDAKNRMREIPILQDLPTIVVAGYPNVGKSSLVARISTVKPEVASYPFTTKKINLGFAEFAGKRVQIIDTPGLLDRPLSKRNRIERRAVLALKHLADIILFVIDPTETCGYSLEKQLSLLEEIKGYFAKPTVEVYSKADMHDRRDRQAYSAVTGEGIDELIKEIEKMVKIHSQTSTVIAPSGQTSTQEQHSLEHHHHHH | failed |
| MGGASWADTAMGGKGRHPDKALTTVQVRALKVPGRYADGNGLYLVVEPSGSKRWLLRTIVQGRRRDIGLGGAGLVTLAEAREKALAYRKLARDGGDPLAERRKARATVPTFAEAAEQVHEEHKASWKNPKHAAQWITTLRTYANPHLGARRVDQIETPDVLRALSPIWLTKGETARRVRQRIGTVLDWAKAAGHRTGDNPVESVAKGLPKQGERDEHHAALPYAEVPAFVTRLQSSDHGEAARLAFEFLILTAARTSEVLRAEWREIDEAEALWTVPAARMKAGREHRVPLSKRSLEIVRRAKLLAGDSAFIFPGRSTGKPMSNMVFLMALRRMKLTVTAHGFRSSFRDWAAEATSLPREVAEMALAHTIENRVEAAYRRGDLLAKRREMMEQWSTFVASKPKGDKPHKSSA | failed |
| MTRAINDPGNEDPGSLLETDADALLGGAAAQAPEERCRLAAQACIRACERYLALCTESSREQRQHAGDCADLCRLAALLLERRSPWAPAACELAARYALACAERCDGDEPLERECAGACRRFVEACRPLLPALEHHHHHH | not failed |
| MSIRLAQVTDIPVLKELLNQIFQVHQTVRPDLFKNTDKGSKYSETELKELLQDESKPIFVYTDGKNRVLGHLFLVIKETKGSSVSKPLKTLFIDDLCVSKEARGQKIGQELFEFALKYAKKLGCYDLTLNVWNDNKGALAFYERQGLKARETKMEKILLEHHHHHH | not failed |
| MIEVAEIIAREIRRGKIVEIGVGFYLEVAKRLRESGIDILVVDINEKAINYARKQGIKGVVDDIFNPTLGIYKDAKAIYSIRPAPEMMKPLLDLARKLKIPLYIVPLTGDRTPNGMKLINYKGIPIYKWEP | not failed |
| MELKVWVDGVQRIVCGVTEVTTCQEVVIALAQAIGRTGRYTLIEKWRDTERHLAPHENPIISLNKWGQYASDVQLILRRTGP | not failed |
| MKETTKKIVSKRLTKVVALVLMCVICTSGVITVTALSRDVTVLDGDKMYGLTTLNANPDAVLDRLGIEVSPEDSIEFDEAAAKITIKRAFDVTVEVDGKAKTVTMTEGTVADALEASKVDLKEGDQVVPFAATSLVPDMEIKVARGVEVTVEADGKSVKVKVPVTATVEAAVAAADFTVGKDDVLSAEKTDTVSAGMTIKLDRVSYRETETTQEIPYESTQEETGELDLGDTQVKTAGENGARTIVTREKLVNGQVVETEEISSTVVKEPVNEVLLVGTREVETAPSYGAASTSGGVLVDHDGNQIAYTAVYTGSATAYTAPAGSFTATGRPAQYGNVAVNPDLIPYGSRLYICSPDGSYVYGYAVAADTGGALMSGSALVDVYFDTLSECYGFGRRTLSVYILA | failed |
| MIRMTKVDIISGFLGAGKTTFIKQLINQAFAGEKLVLIENEFGEIGIDGGFLKNAGIEITEMNSGCICCTLVGDFSKALKKVLEEYQPDRVIIEPSGVGKLSDIMKAIEDVKKDADIAIDGRITVVDGKKAKLYLKNFGEFFKDQVEHASAIVISRTQAMSDDKIEECVHMLRDENKEAAIISTPWAQLGKEAIIHALEKGSELAGLLEETHGQECCHHEHHHHEHEACGHEHHHHHADEIFTSWGKETAHKYTKEELDFMLKALSETEAYGTVLRSKGIIQMSDGSWRQFDLVPQEYEVREGQPDYTGRLCVIGTDLKEEELMTLFHLKLEHHHHHH | failed |
| MVKKNVGLRFLSILILMALLIGNVQSFNVAAAEGVIVNGTQFKDTSGNVIHAHGGGMLKHGDYYYWYGEYRDDSNLFLGVSCYRSKDLVNWEYRGEVLSRNSAPELNHCNIERPKVMYNASTGEFVMWMHWENGINYGQARAAVAYSKTPDGKFTYIRSFRPMQDTGVMDHGLPGYMSRDCNVFVDTDGKGYFISAANENMDLHLYELTPDYKNIASLKAKLFVGQQREAPCLIKRNGYYYLITSGCTGWNPNQAKYAYSKDLASGWSQLYNLGNSTTYRSQPTFIIPVQGSSGTSYLYMGDRWAGAWGGKVNDSQYVWLPLNFISDTTLELPYYDSVKIDASSGIISEYIPDTTRYKLVNKNSGKVLDVLDGSVDNAAQIVQWTDNGSLSQQWYLVDVGGGYKKIVNVKSGRALDVKDESKEDGGVLIQYTSNGGYNQHWKFTDIGDGYYKISSRHCGKLIDVRKWSTEDGGIIQQWSDAGGTNQHWKLVLVSSPEPSPSPSPQVVKGDVNGDLKVNSTDFSMLRRYLLKTIDNFPTENGKQAADLNGDGRINSSDLTMLKRYLLMEVDL | failed |
| MQTLNVLDNRFSPFNTYSTLSTDALVAETFTNTIFDKRQILALMTQLQTTLDIDELLSIFAVEATRYVDFSGLYFKSQNLNTVLFGSRKAKKEQCFELKIEDNFIGTLSYGINSPISLTNFKVLEQLHLCLLHPIKNAIAYHTAMQLAMQDGLTGLGNRRYFDEQLKRSMHNANRHHSLVGLVLGDLNKFKAINDTHGHIAGDTVLQEFANVLRLCTRDSDSLFRFGGDEFAIIVENANDTALAIIENRINLALASNVQLNKYQLGCSIGSTFMNRADNELSFFERADEILYRRKMQVSSHLSVV | failed |
| MSSQLNHGTLPKISIVTPSYNQAQYLEATMRSILDQGYPDLEYIVMDGGSTDGSTEIIQKYSDRLTYWESAPDKGQADAIFRGFERATGEIFCYVNSDDLLLPGSLEMVGRWFREHPDEEWVVGGTILIDGLGIPIIRSRRGLPEADLGVKVTFKRLLLHNCGGFHQPASFWRRSAFEQAGGFDRTLRFCFDYDLFFRLAKRRPSGRIRSFLAAFRYHPASKTSTLESVFREENETLWRRYGRYLYSENQIRNFAHKQTTRDMWNNRIIKLGFYLKILNVSNAIGSLEHHHHHH | not failed |
